Results reported in patent US20240343820A1.

B1: 23C11 (antibody, V domains shown)
VH: QVQLQQPGAELVRPGSSVKLSCKASGYTFTSYWMHWVKQRPIQGLEWIGNIDPSDSETHYNQKFKDKATLTVDKSSSTAYMQLSSLTSEDSAVYYCARAGRVFYYAMDYWGQGTSVTVSS
VL: DIQMTQTTSSLSASLGDRVTISCRASQDISNYLNWYQQKPDGTVKLLIYYTSRLHSGVPSRFSGSGSGTDYSLTISNLEQEDIATYFCQQGNTLYTFGGGTKLEIK
B2: 23E1 (antibody, V domains shown)
VH: EVQLQQSGPVLVKPGPSVKISCKASGFTFTDYYMHWVKQSHGKSLEWIGLVYPYNGGTSYNQKFKGKATLTVDTSSSTAYMELNSLTSEDSAVYYCARRGQRVWYFDVWGTGTTVTVSS
VL: DIQMTQSPSSLSASLGGKVTITCKASQDINKYIAWYQHKPGKGPRLLIHYTSTLQPGIPSRFSGSGSGRDYSFSISNLEPEDIATYYCLQYDNLYTFGGGTKLEIK
B3: 24C7 (antibody, V domains shown)
VH: QVQLQQSGPELVKPGASVKISCKASGYSFTSYYIHWVKQRPGQGLEWIGWIYPGSGNTKYNEKFKGKATLTADTSSSTAYMQLSSLTSEDSAVYYCARCVLLDYFDYWGQGTTLTVSS
VL: DIQMTQSPSSLSASLGERVSLTCRASQEISGYLSWLQQKPDGTIKRLIYAASTLDSGVPKRFSGSRSGSDYSLTISSLESEDFADYYCLQYASYPYTFGGGTKLEIK
B4: 24C12 (antibody, V domains shown)
VH: QVQLQQSGAELMKPGASVKLSCKATGHTFTGYWIEWVKQRPGHGLEWIGEILPGSGSTNYNEKFKGKATFTADTSSNTAYMQLSSLTTEDSAIYYCAREGFAYWGQGTLVTVSA
VL: DIVMTQSHKFMSTSVGDRVSITCKASQDVGIAVAWYQQKPGQSPKLLIYWASTRHTGVPDRFTGSGSGTDFTLTISNVQSEDLADYFCQQYSSYPYTFGGGTKLEIK
B5: 29F8 (antibody, V domains shown)
VH: QIQLVQSGPELKKPGETVKISCKASGYTFTTYGMSWVKQAPGKGLKWMGWINTYSGVPTYADDFKGRFAFSLETSASTAYLQINNLKNEDSATYFCARYYYGSNYDYWGQGTTLTVSS
VL: DIQMTQSPASLSASVGETVTITCRASENIYSYLAWYQQKQGKSPQLLVNNAKTLAEGVPSRFSGSGSGTQFSLKINSLQPEDFGSYYCQHHYGSPPTFGSGTKLEIK
B6: 25F10 (antibody, V domains shown)
VH: QVHLQQSGPELVKPGASVKISCKASGYSFTSYYIHWVKQRPGQGLEWIGWIYPRSGNTNYNEKFKDKATLAADTSSSAAYMQLSSLTSEDSAVYYCGRSDFYYGSDYWGQGTTLTVSS
VL: DIQMTQSPSSLSASLGERVSLTCRASQEISGYLGWLQQKPDGTIKRLIYAASTLDSGVPRRFSGSRSGSDYSLTFSSLESEDFADYYCLQYASYPWTFGGGTKLEIK
B7: 29F1 (antibody, V domains shown)
VH: QIQLVQSGPELKKPGETVKISCKASGYTFTTYGMSWVKQAPGKGLKWMGWINTYSGVPTYADDFKGRFAFSLETSASTAYLQINNLKNEDTATYFCARFYYGSSFDYWGQGTTLTVSS
VL: DIQMTQSPASLSASVGETVTITCRASENIYSYLAWYQQKQGKSPQLLVYNAKTLAEGVPSRFSGSGSGTQFSLKINSLQPEDFGSYYCQHHYGTPLTFGAGTKLELK
B8: 25B2 (antibody, V domains shown)
VH: QIQLVQSGPELKKPGETVKISCKASGYTFTTYGMSWVKQAPGKGLKWMGWINTYSGVPTYADDFKGRFAFSLETSASTAYLQINNLKNEDTATYFCARTYYGNYFDYWGQGTTLTVSS
VL: DIQMTQSPSSLSASLGGKVTITCKASQDINKYIAWYQHKPGKGPRLLIHYTSTLQPGIPSRFSGSGSGRDYSFSISNLEPEDIATYYCLQYDNLYTFGGGTKLEIK
B9: 22H5 (antibody, V domains shown)
VH: DVQLQESGPGMVKPSQSLSLTCTVTGYSITSGYDWHWIRHFPGNKLEWMGYISYSGSTNYNPSLKSRISITHDTSKNHFFLKLNSVTTEDTATYYCAREGYSNYFDSWGQGTTLTVSS
VL: SIVMTQTPKFLLVSAGDRVTITCKASQSVSNDVAWYQQKPGQSPKLLIFYASNRYTGVPDRFTGSGYGTDFTFTISTVQAEDLAVYFCQQDYSSPLAFGAGTKLELK

Each binder was assayed against anti-CD20 scFv-14 (assay: Octet (BLI) equilibrium binding, hybridoma supernatant; antigen format not stated).

B1 and B2 are within 1.5-fold of each other in Kd: 3.72 nM for the first, 3.28 nM for the second.

Compared with B3, B4 is 2800-fold lower in Kd: 3.9 nM for the first, 0.00138 nM for the second. The second binds more tightly here.

Going from B5 to B6, the Kd rises from 0.00131 nM to 0.00408 nM (3.1-fold). The first binds more tightly here.

Going from B7 to B8, the Kd rises from 0.0534 nM to 0.382 nM (7.2-fold).

B9 was tested, and the Kd was 0.633 nM.
